Assay results taken from US20170037148A1 (INSERM INSTITUT NATIONAL DE LA SANT ET DE LA RECHERCHE M …, published 2017).
Values joined by “and” are separate entries in the source; they are usually repeats but may differ in a detail not shown here. Equal entries are not always repeated.

Columns and labels:
[1] = target: recombinant wild-type ADAMTS13 containing a V5- and a His-tag (wt-rADAMTS13) (human) (UniProt Q76LX8); assay: competition immuno-sorbent assay, fragment 10 nM pre-incubated with wt-rADAMTS13, immobilized pd-VWF
[2] = target: recombinant wild-type ADAMTS13 containing a V5- and a His-tag (wt-rADAMTS13) (human) (UniProt Q76LX8); assay: cell-based or functional assay
[3] = target: purified plasma-derived von Willebrand factor (pd-VWF), P04275
[4] = target: T1, purified plasma-derived von Willebrand factor (pd-VWF) (human, UniProt P04275 764-2813); assay: competitive immuno-sorbent assay, mAb508 0 to 50 µg/ml against ADAMTS13 (4 µg/ml) on coated VWF (2 µg/ml)
T1 construct: mature; Multimeric plasma protein; also called full-length VWF; globular full-length VWF

[5] = target: T1, purified plasma-derived von Willebrand …; assay: BLI (Octet-QK), equilibrium responses, mAb508 on protein A biosensors, pd-VWF in solution, single class of binding sites
Method: Subsequently, biosensors were incubated with various concentrations purified pd-VWF (0-0.2 mg/ml) and association of VWF was monitored real-time for a 10-min period until equilibrium was reached. Data represent mean±SD of four independent associations and depicted are the calculated responses (shift in nm) at equilibrium versus VWF concentration. The drawn line represents the best fit using a model describing the interaction of a single class of binding sites.
Biolayer interferometry-analysis: Equilibrium binding assays were performed via biolayer interferometry (BLI)-analysis using Octet-QK equipment (ForteBio, Reading, UK) essentially as described (26). […] Biosensors were then incubated for 5 min in BLI-buffer to achieve stable baseline, and subsequently incubated with various concentrations of pd-VWF in BLI-buffer for 10 min. All incubations were performed at room temperature under continuous shaking (1000 rpm). Data were analyzed using Octet Software version 4.0.

Row | Molecule | inhibition of ADAMTS13 binding to immobilized VWF [1] | other results
1 | A3-Fc (from UniProt P04275 1681-1878) (Fc fusion) | < 20% | 
2 | D′D3-HPC4 (from UniProt P04275 764-1247) | < 20% | 
3 | recombinant wild-type ADAMTS13 containing a V5- and a His-tag (wt-rADAMTS13) (protein) AAGGILHLELLVAVGPDVFQAHQEDTERYVLTNLNIGAELLRDPSLGAQFRVHLVKMVILTEPEGAPNITANLTSSLLSVCGWSQTINPEDDTDPGHADLVLYITRFDLELPDGNRQVRGVTQLGGACSPTWSCLITEDTGFDLGVTIAHEIGHSFGLEHDGAPGSGCGPSGHVMASDGAAPRAGLAWSPCSRRQLLSLLSAGRARCVWDPPRPQPGSAGHPPDAQPGLYYSANEQCRVAFGPKAVACTFAREHLDMCQALSCHTDPLDQSSCSRLLVPLLDGTECGVEKWCSKGRCRSLVELTPIAAVHGRWSSWGPRSPCSRSCGGGVVTRRRQCNNPRPAFGGRACVGADLQAEMCNTQACEKTQLEFMSQQCARTDGQPLRSSPGGASFYHWGAAVPHSQGDALCRHMCRAIGESFIMKRGDSFLDGTRCMPSGPREDGTLSLCVSGSCRTFGCDGRMDSQQVWDRCQVCGGDNSTCSPRKGSFTAGRAREYVTFLTVTPNLTSVYIANHRPLFTHLAVRIGGRYVVAGKMSISPNTTYPSLLEDGRVEYRVALTEDRLPRLEEIRIWGPLQEDADIQVYRRYGEEYGNLTRPDITFTYFQPKPRQAWVWAAVRGPCSVSCGAGLRWVNYSCLDQARKELVETVQCQGSQQPPAWPEACVLEPCPPYWAVGDFGPCSASCGGGLRERPVRCVEAQGSLLKTLPPARCRAGAQQPAVALETCNPQPCPARWEVSEPSSCTSAGGAGLALENETCVPGADGLEAPVTEGPGSVDEKLPAPEPCVGMSCPPGWGHLDATSAGEKAPSPWGSIRTGAQAAHVWTPAAGSCSVSCGRGLMELRFLCMDSALRVPVQEELCGLASKPGSRREVCQAVPCPARWQYKLAACSVSCGRGVVRRILYCARAHGEDDGEEILLDTQCQGLPRPEPQEACSLEPCPPRWKVMSLGPCSASCGLGTARRSVACVQLDQGQDVEVDEAACAALVRPEASVPCLIADCTYRWHVGTWMECSVSCGDGIQRRRDTCLGPQAQAPVPADFCQHLPKPVTVRGCWAGPCVGQGTPSLVPHEEAAAPGRTTATPAGASLEWSQARGLLFSPAPQPRRLLPGPQENSVQSSACGRQHLEPTGTIDMRGPGQADCAVAIGRPLGEVVTLRVLESSLNCSAGDMLLLWGRLTWRKMCRKLLDMTFSSKTNTLVVRQRCGRPGGGVLLRYGSQLAPETFYRECDMQLFGPWGEIVSPSLSPATSNAGGCRLFINVAPHARIAIHALATNMGAGTEGANASYILIRDTHSLRTTAFHGQQVLYWESESSQAEMEFSEGFLKAQASLRGQYWTLQSWVPEMQDPQSWKGKEGT |  | proteolytic cleavage of pd-VWF (30 µg/ml) by recombinant ADAMTS13 (3 µg/ml), vortex-based degradation assay [3]: proteolytic cleavage of pd-VWF (30 µg/ml) by recombinant ADAMTS13 (3 µg/ml) increases as a function of incubation time, with maximal degradation obtained after 30 min
4 | anti-human von Willebrand factor monoclonal antibody 508 (mAb508) (antibody, mouse IgG1, kappa, V domains shown, Murine monoclonal antibody purified from hybridoma; also called antibody mAb508) VH: DVQLQESGPDLVEPSQSLSLSCTVTGYSITSGYSWHWIRQFPGNKLEWLGYIHYSGTTTYNPSLHSRVSITRDTSKNQFFLQLNSVSTEDTATYFCGREGYHWGQGTTLTVSS VL: DVVMTQTPLSLPVSLGDQASISCRSSQSLVHSIGNTYLHWYLQKPGQSPKLLIYKVSNRFSGVPDRFSGSGSGTDFTLKISRVEAEDLGVYFCSQTTHVPLTFGGGTRLEIKR |  | IC50 [4]: 0.09 µg/mL; Kd [5]: 13 µg/mL and 52 nM

More lines, main results first:

Row | inhibition of ADAMTS13 binding to immobilized VWF [1] | Molecule | other results
5 | < 20% | A1-Fc (from UniProt P04275 1261-1478) (Fc fusion) | 
6 | 65% | A2-Fc (from UniProt P04275 1480-1672) (Fc fusion) | residual proteolysis of VWF by ADAMTS13, vortex-based degradation assay, A2-Fc 1 µg/ml [2]: 96%
7 | < 20% | D4-Fc (from UniProt P04275 1947-2301) (Fc fusion) | 
